Assay results taken from paper PMC5102582 (eLife, 2016).

Legend:
[1] = molecular target: the molecule itself; experiment: SEC; HiLoad 16/60 Superdex 200 gel filtration column, during purification of full-length p47
R95G ND1Lp97-ADP = molecular target: T1, R95G ND1Lp97-ADP (Homo sapiens/Mus musculus (identical), UniProt P55072 1-480, R95G); experiment: NMR titration; one point: 150 µM UBXD1-N added to 50 µM (monomer) wt or mutant ND1Lp97-ADP (3:1); methyl-TROSY HMQC CSPs; Kd from the bound fraction by the V68 shift; 50°C; 25 mM HEPES pH 7.0, 50 mM NaCl, 10 mM ADP, 5 mM TCEP, D2O; conditions: both partners purified
T1 construct: p97/VCP, Homo sapiens/Mus musculus (identical), residues 1-480, IBMPFD disease mutation R95G; deuterated, ILVM-13CH3 labelled; mutation found in IBMPFD patients; also called R95G mutant; not shown: His6, N-terminal, cleaved

R155P ND1Lp97-ADP = molecular target: T2, R155P ND1Lp97-ADP (Homo sapiens/Mus musculus (identical), UniProt P55072 1-480, R155P); experiment: as above; conditions: both partners purified
T2 construct: p97/VCP, Homo sapiens/Mus musculus (identical), residues 1-480, IBMPFD disease mutation R155P; deuterated, ILVM-13CH3 labelled; mutation found in IBMPFD patients; not shown: His6, N-terminal, cleaved

R155H ND1Lp97-ADP = molecular target: T3, R155H ND1Lp97-ADP (Homo sapiens/Mus musculus (identical), UniProt P55072 1-480, R155H); experiment: as above; conditions: both partners purified
T3 construct: p97/VCP, Homo sapiens/Mus musculus (identical), residues 1-480, IBMPFD disease mutation R155H; deuterated, ILVM-13CH3 labelled; mutation found in IBMPFD patients; not shown: His6, N-terminal, cleaved

N387H ND1Lp97-ADP = molecular target: T4, N387H ND1Lp97-ADP (Homo sapiens/Mus musculus (identical), UniProt P55072 1-480, N387H); experiment: as above; conditions: both partners purified
T4 construct: p97/VCP, Homo sapiens/Mus musculus (identical), residues 1-480, IBMPFD disease mutation N387H; deuterated, ILVM-13CH3 labelled; mutation found in IBMPFD patients; not shown: His6, N-terminal, cleaved

[2] = molecular target: T5, wt ND1Lp97-ADP (p97/VCP residues 1-480: NTD, D1 and the D1-D2 linker) (Homo sapiens/Mus musculus (identical), UniProt P55072 1-480); experiment: NMR titration; methyl-TROSY 13C-1H HMQC chemical shift titration of ILVM-13CH3 wt ND1Lp97-ADP with perdeuterated UBXD1-N; global analysis of V68, L140, I175, I182; effective macroscopic Kd; 50°C; 25 mM HEPES pH 7.0, 50 mM NaCl, 10 mM ADP, 5 mM TCEP, D2O; a new sample for each ligand concentration; conditions: both partners purified
T5 construct: p97/VCP, Homo sapiens/Mus musculus (identical), UniProt P55072 versus Q01853, residues 1-480; highly deuterated, ILVM-13CH3 methyl labelled; 320 kDa hexamer (6 x 53 kDa); also called p97 ND1L 1-480; NDL1p97-ADP; not shown: His6, N-terminal, cleaved
T5 sequence (P55072 1-480): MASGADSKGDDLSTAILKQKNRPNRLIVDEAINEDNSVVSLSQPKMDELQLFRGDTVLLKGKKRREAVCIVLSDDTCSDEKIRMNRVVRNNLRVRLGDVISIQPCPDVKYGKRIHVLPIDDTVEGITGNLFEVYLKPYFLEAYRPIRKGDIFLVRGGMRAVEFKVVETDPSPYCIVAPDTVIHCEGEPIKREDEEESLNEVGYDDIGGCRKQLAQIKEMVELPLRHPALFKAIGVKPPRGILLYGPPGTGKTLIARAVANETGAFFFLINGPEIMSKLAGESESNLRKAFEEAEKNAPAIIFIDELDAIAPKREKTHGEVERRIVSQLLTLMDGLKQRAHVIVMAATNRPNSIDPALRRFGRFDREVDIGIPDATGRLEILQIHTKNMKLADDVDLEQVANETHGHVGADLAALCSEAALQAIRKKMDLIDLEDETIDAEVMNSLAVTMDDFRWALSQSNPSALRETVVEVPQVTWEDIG

T2 sequence (P55072 1-480 R155P): as the sequence (P55072 1-480) above, with R155P counted along it
T4 sequence (P55072 1-480 N387H): as the sequence (P55072 1-480) above, with N387H counted along it
T1 sequence (P55072 1-480 R95G): as the sequence (P55072 1-480) above, with R95G counted along it
T3 sequence (P55072 1-480 R155H): as the sequence (P55072 1-480) above, with R155H counted along it

Kd (R95G ND1Lp97-ADP) [µM]	Kd (R155P ND1Lp97-ADP) [µM]	Kd (R155H ND1Lp97-ADP) [µM]	Kd (N387H ND1Lp97-ADP) [µM]	Kd [2] [µM]	Binder	stoichiometry N [1]
–	–	–	–	–	full-length p47 (natural protein, Mus musculus, UniProt Q9CZ44 1-370, looked up, p47 (NSFL1 cofactor p47), Mus musculus, full length; perdeuterated; eluted as a trimer on gel filtration; also called p47 trimer; not shown: His6, N-terminal, cleaved) MAEERQDALREFVAVTGTEEDRARFFLESAGWDLQIALASFYEDGGDEDIVTISQATPSSVSRGTAPSDNRVTSFRDLIHDQDEEEEEEEGQRFYAGGSERSGQQIVGPPRKKSPNELVDDLFKGAKEHGAVAVERVTKSPGETSKPRPFAGGGYRLGAAPEEESAYVAGERRRHSGQDVHVVLKLWKTGFSLDNGDLRSYQDPSNAQFLESIRRGEVPAELRRLAHGGQVNLDMEDHRDEDFVKPKGAFKAFTGEGQKLGSTAPQVLNTSSPAQQAENEAKASSSILINEAEPTTNIQIRLADGGRLVQKFNHSHRISDIRLFIVDARPAMAATSFVLMTTFPNKELADENQTLKEANLLNAVIVQRLT	3
~200	~200	~80	~80	22 ± 2	UBXD1-N (N-terminal portion of UBXD1, residues 1-133) (domain or fragment, Mus musculus, UniProt Q99PL6 1-133, looked up, UBXD1, Mus musculus, residues 1-133 (holds H1/H2 and VIM, residues 52-63); perdeuterated; construct after Trusch et al., 2015; not shown: His6, N-terminal, cleaved) MKKFFQEIKADIKFKSAGPGQKLTDSAGEKTTKGKSPQLALRQPRQGPTDEAQMAAAAALARLEQKQPRARGPTSQDSIRNQVRKELQAEATSSNNPGAPGTNSVPEPKEEISPHLAVPGVFFICPLTGVTLR	–
